Results on 167 variants are retold here after the Human Domainome abundance scans (Beltran et al. 2025).

± gives the uncertainty stated by the source.

To fix the notation:
B1: Death-inducer obliterator 1, residues 263 to 321; numbered along this chain, Q9BTC0 (parent)
chain: GYDPNALYCICRQPHNNRFMICCDRCEEWFHGDCVGISEARGRLLERNGEDYICPNCTI

The data set covers variants of B1. Kind of data set: abundance fitness (aPCA) (normalised: wild type 0, dead -1); higher = more abundant; growth selection in yeast, the domain comes from the species named. Conditions: Homo sapiens.
Take C11W: the abundance fitness is -0.953 ± 0.2.
For the variant C11R, the abundance fitness is -0.861 ± 0.087.
In the case of C11Q, the abundance fitness is -0.609 ± 0.16.
With C11N, the abundance fitness was -0.708 ± 0.21.
On to C11I, for which the abundance fitness is -0.785 ± 0.12.
Next, C54I: -1 ± 0.24.
For C54E, the abundance fitness is -0.781 ± 0.16.
As to C54S, the abundance fitness is -0.723 ± 0.12.
As for C54M, the abundance fitness is -0.991 ± 0.25.
Turning to C54V, the abundance fitness is -0.674 ± 0.097.
For F19L the value was -0.016 ± 0.056; for F19G, -0.224 ± 0.095; for F19S, -0.143 ± 0.052.
Turning to F19M, the abundance fitness was -0.265 ± 0.1.
Consider F19W, for which the abundance fitness is -0.016 ± 0.082.
Regarding F19V, the abundance fitness was -0.166 ± 0.074.
Consider R25F, for which the abundance fitness is -0.068 ± 0.075.
As to R25T, the abundance fitness was determined as 0.039 ± 0.096.
For the variant R25H, the abundance fitness is -0.032 ± 0.12.
Consider R25D, for which the abundance fitness is -0.027 ± 0.18.
For R25V, the abundance fitness is 0.063 ± 0.1.
In the case of R25Q, the abundance fitness was found to be 0.124 ± 0.061.
Take R25N: the abundance fitness is 0.101 ± 0.12.
R25A: the abundance fitness came out at 0.125 ± 0.076.
As to C23Y, the abundance fitness is -1.17 ± 0.17.
With C23K, the abundance fitness is -0.408 ± 0.099.
As for C23P, the abundance fitness is -0.296 ± 0.11.
Consider C23T, for which the abundance fitness is -0.918 ± 0.14.
In the case of C23R, the abundance fitness was -0.792 ± 0.095.
C23S: the abundance fitness is -0.594 ± 0.084.
As for I21A, the abundance fitness was -0.144 ± 0.1.
As for I21Q, the abundance fitness is -0.164 ± 0.11.
Take I21G: the abundance fitness was -0.575 ± 0.22.
Regarding I21M, the abundance fitness is -0.104 ± 0.077.
I21Y: the abundance fitness turned out to be 0.036 ± 0.094.
For I21T the value was -0.177 ± 0.074.
As for I21D, the abundance fitness was -0.692 ± 0.21.
For I59H the value was -0.14 ± 0.19; for I59R, -0.046 ± 0.22.
On to I59V, for which the abundance fitness was found to be 0.279 ± 0.12.
For I59A, the abundance fitness worked out at 0.001 ± 0.27.
Regarding I59D, the abundance fitness stood at 0.618 ± 0.42.
Regarding I59L, the abundance fitness is -0.077 ± 0.14.
For T58Y the value was -0.289 ± 0.092; for T58A, 0.084 ± 0.064; for T58C, 0.194 ± 0.16.
As for T58K, the abundance fitness turned out to be 0.123 ± 0.1.
In the case of T58R, the abundance fitness turned out to be 0.3 ± 0.067.
In the case of T58V, the abundance fitness is -0.055 ± 0.079.
As for T58M, the abundance fitness is -0.115 ± 0.12.
For T58F, the abundance fitness is -0.264 ± 0.15.
For T58P the value was 0.014 ± 0.087; for F30R, -0.306 ± 0.086; for F30W, -0.325 ± 0.12.
For the variant F30C, the abundance fitness was -0.08 ± 0.081.
On to F30T, for which the abundance fitness is -0.38 ± 0.092.
On to F30E, for which the abundance fitness was -0.954 ± 0.34.
F30D: the abundance fitness is -0.749 ± 0.13.
In the case of F30L, the abundance fitness is -0.006 ± 0.051.
In the case of N56A, the abundance fitness was -0.037 ± 0.12.
Next, N56L: -0.22 ± 0.078; N56G: 0.064 ± 0.13.
In the case of N56C, the abundance fitness was -0.014 ± 0.11.
Consider N56Q, for which the abundance fitness was -0.155 ± 0.16.
For C9E, the abundance fitness was -0.664 ± 0.12.
C9K: the abundance fitness is -1 ± 0.28.
In the case of C9S, the abundance fitness was -0.859 ± 0.096.
C9W: the abundance fitness was -0.543 ± 0.075.
As for C9L, the abundance fitness is -0.813 ± 0.083.
Next, C9P: -0.877 ± 0.24.
C9R: the abundance fitness was -0.534 ± 0.042.
As for C9Y, the abundance fitness was -0.763 ± 0.22.
Next, R12A: -0.14 ± 0.1.
With R12T, the abundance fitness is -0.105 ± 0.066.
Turning to R12Y, the abundance fitness was -0.296 ± 0.098.
For R12P the value was -0.463 ± 0.08; for G32E, 0.022 ± 0.05; for G32Y, -0.421 ± 0.18.
For the variant D3G, the abundance fitness is -0.243 ± 0.096.
As to D3M, the abundance fitness turned out to be 0.199 ± 0.066.
As to D3T, the abundance fitness was 0.023 ± 0.12.
Turning to D3V, the abundance fitness is -0.177 ± 0.078.
In the case of D3W, the abundance fitness was -0.163 ± 0.11.
D3L: the abundance fitness is -0.024 ± 0.048.
For D3R the value was -0.049 ± 0.075; for D3N, 0.155 ± 0.081; for D3F, 0.025 ± 0.097.
On to C26P, for which the abundance fitness was -0.599 ± 0.17.
Consider C26Q, for which the abundance fitness was -0.985 ± 0.25.
As to G42C, the abundance fitness is 0.065 ± 0.18.
For the variant G42L, the abundance fitness was 0.062 ± 0.048.
As for G42S, the abundance fitness is -0.051 ± 0.13.
As to G42H, the abundance fitness came out at 0.245 ± 0.12.
Regarding G42N, the abundance fitness turned out to be 0.334 ± 0.17.
Next, W29E: 0.277 ± 0.1; W29S: 0.17 ± 0.042; W29D: 0.025 ± 0.18.
Next, W29P: 0.05 ± 0.071; W29R: 0.173 ± 0.056; I53V: -0.028 ± 0.074.
With I53E, the abundance fitness is 0.172 ± 0.17.
With I53S, the abundance fitness was determined as 0.02 ± 0.087.
In the case of I53N, the abundance fitness is 0.328 ± 0.22.
With I53K, the abundance fitness is 0.355 ± 0.12.
For I53M the value was 0.269 ± 0.19; for I53R, -0.024 ± 0.097.
Take I10K: the abundance fitness was -0.064 ± 0.087.
On to I10V, for which the abundance fitness is -0.116 ± 0.049.
I10N: the abundance fitness was 0.011 ± 0.09.
With I10W, the abundance fitness is -0.169 ± 0.11.
Next, I10G: -0.217 ± 0.11.
For D33H, the abundance fitness was -0.101 ± 0.072.
In the case of D33N, the abundance fitness is -0.259 ± 0.075.
For D33W the value was -0.237 ± 0.063; for D33G, -0.027 ± 0.04; for D33Y, 0.13 ± 0.082.
As to D33Q, the abundance fitness was -0.127 ± 0.11.
Take E39Y: the abundance fitness was -0.22 ± 0.098.
On to E39D, for which the abundance fitness is -0.144 ± 0.084.
Regarding H31D, the abundance fitness is -0.422 ± 0.12.
Turning to H31W, the abundance fitness is -0.507 ± 0.11.
Next, H31I: -0.67 ± 0.096; H31P: -1.05 ± 0.22.
Next, H31A: -0.636 ± 0.1; A40N: -0.434 ± 0.28.
In the case of A40C, the abundance fitness was 0.151 ± 0.1.
In the case of A40T, the abundance fitness is -0.077 ± 0.085.
For the variant A40D, the abundance fitness is -0.019 ± 0.071.
With A40G, the abundance fitness is -0.11 ± 0.068.
For C34Q the value was -0.644 ± 0.098; for C34P, -0.803 ± 0.12; for C34L, -0.805 ± 0.087.
On to C34H, for which the abundance fitness was -0.368 ± 0.066.
For the variant C34M, the abundance fitness was -0.831 ± 0.14.
M20W: the abundance fitness is -0.323 ± 0.12.
M20P: the abundance fitness was -0.519 ± 0.15.
Take M20G: the abundance fitness is -0.023 ± 0.069.
For M20R the value was -0.07 ± 0.057; for M20V, -0.077 ± 0.082.
In the case of M20T, the abundance fitness is 0.053 ± 0.074.
For N17S, the abundance fitness is -0.111 ± 0.054.
For the variant N17P, the abundance fitness is -0.179 ± 0.1.
With N17C, the abundance fitness is -0.117 ± 0.12.
Take N17A: the abundance fitness was -0.03 ± 0.06.
On to N17V, for which the abundance fitness is -0.374 ± 0.073.
Consider N17D, for which the abundance fitness is -0.148 ± 0.075.
Regarding P14F, the abundance fitness is -0.084 ± 0.079.
On to P14E, for which the abundance fitness is 0.141 ± 0.059.
Consider P14A, for which the abundance fitness was determined as 0.006 ± 0.067.
For the variant P14G, the abundance fitness came out at 0.018 ± 0.046.
Take P14K: the abundance fitness was found to be 0.201 ± 0.055.
P14T: the abundance fitness is 0.031 ± 0.064.
For G1C, the abundance fitness worked out at 0.138 ± 0.088.
With G1L, the abundance fitness was determined as 0.266 ± 0.12.
G1P: the abundance fitness was -0.104 ± 0.4.
Regarding G1R, the abundance fitness was -0.134 ± 0.14.
Consider G1N, for which the abundance fitness is 0.109 ± 0.11.
Regarding E28L, the abundance fitness is -0.055 ± 0.055.
Next, E28A: -0.153 ± 0.076; P55Q: 0.109 ± 0.15; P55F: -0.4 ± 0.16.
As for P55A, the abundance fitness turned out to be 0.078 ± 0.066.
As for P55L, the abundance fitness is -0.011 ± 0.074.
Turning to P55E, the abundance fitness was -0.116 ± 0.16.
Next, P55K: 0.265 ± 0.082.
On to P55H, for which the abundance fitness was -0.04 ± 0.11.
Regarding P55Y, the abundance fitness was -0.245 ± 0.16.
